From US20180371460, “Depletion of Abundant Serum Proteins to Facilitate Biomarker Discovery” (UNIVERSITY OF UTAH RESEARCH FOUNDATION, published 2018)

Columns and labels:
[1] = target: T1, Human serum albumin (HSA), denatured (Homo sapiens, UniProt P02768 P02768:25-609); experiment: EMSA; tested in lane 7, not listed among binders; PBS pH 6, 50 mM DTT, 1% SDS; details: tags: none; denatured with 1% surfactant and reduced with DTT or TCEP; label: 5'-fluorescein
Procedure: (§1) Gel shift assays were then performed to determine which of these nucleic acids would bind to HSA under denaturing and reducing conditions. Specifically, 40 nmol of the fluorescein labeled DNA was incubated with 3 μM denatured HSA in PBS (pH=6) containing 50 mM fresh DTT and 1% SDS at room temperature for 1 hr. The samples were then run on an 8% nondenaturing gel (PBS pH=6, 0.1% SDS) at 100 V for 1 hour at 4° C. The gels were imaged using a Typhoon FLA 9500 gel imager using a 473 nm laser and an LPB filter. FIG. 12 is a representative gel showing the results of the gel shaft assays for the fluorescein labeled forms of the following nucleic acids: 35 (lane 1), 36 (lane 2), 40 (lane 3), H1 (lane 4), H2 (lane 5), H3 (lane 6) and H5 (lane 7).

[2] = target: T1, Human serum albumin (HSA), denatured; experiment: EMSA; tested in lane 1, not listed among binders; PBS pH 6, 50 mM DTT, 1% SDS; details: tags: none; denatured with 1% surfactant and reduced with DTT or TCEP; label: 5'-fluorescein
Procedure: as §1

[3] = target: T1, Human serum albumin (HSA), denatured; experiment: pulldown; 1% surfactant, 50 mM DTT or 25 mM TCEP, PBS pH 7.4, 40 ug/mL HSA; details: tags: none; denatured with 1% surfactant and reduced with DTT or TCEP; label: 5'-fluorescein (gel shift) or 5'-thiol-hexaethylene glycol on agarose (pull-down)
Procedure: The beads were equilibrated with 3 bed volumes of the binding buffer used during the pull-down prior to protein addition. Protein (40 μg/mL) was then added to the columns and placed on a nutating mixer for 45 min followed by 15 minutes of stationary incubation. The supernatant was then collected via centrifugation. The resin was then washed twice with 700 μL binding buffer, collecting the flow-through each time. Bound protein was then eluted using 300 μL 4 M urea with 0.1% surfactant and repeated to recover all bound protein. For each elution, the column was placed on a nutating mixer for 30 min. The A280 was then measured for each aliquot to determine the percent bound.

[4] = target: T1, Human serum albumin (HSA), denatured; experiment: EMSA; tested in lane 6, not listed among binders; PBS pH 6, 50 mM DTT, 1% SDS; details: tags: none; denatured with 1% surfactant and reduced with DTT or TCEP; label: 5'-fluorescein
Procedure: as §1

[5] = target: T1, Human serum albumin (HSA), denatured; experiment: pulldown; 1% SDS or Tween 80 with 50 mM DTT, or 1% Tween 80 with 25 mM TCEP, PBS pH 7.4; blank beads control; details: tags: none; denatured with 1% surfactant and reduced with DTT or TCEP; label: 5'-fluorescein (gel shift) or 5'-thiol-hexaethylene glycol on magnetic beads (pull-down)
Procedure: Pull-down. HSA (2 mg/mL from Gemini) was denatured in 1% surfactant (either Tween 80 or SDS) and 50 mM DTT in PBS (pH=7.4) for 1 hr. The binding buffers consisted of 50 mM freshly prepared DTT. The beads were equilibrated with 2 mL of the binding buffer used during the pull-down prior to protein addition. Protein (40 μg/mL) was then added to the columns and these were placed on a nutating mixer for 1 hr. The samples were then placed on the magnetic separation stand for 4 min, and the supernatant was removed. The beads were then washed twice with 1 mL binding buffer, collecting the supernatant each time. Bound protein was eluted using 300 μL of 4M urea with 0.1% surfactant and repeated to recover all bound protein. For each elution, the beads were incubated at 95° C. for 10 min. The beads were regenerated by rinsing with 1 mL of 1M NaCl followed by 2 mL of PBS. They were then stored in PBS in the refrigerator.
The aliquots were then concentrated using a 10 kDa Amicon spin filter. The samples were run on a NuPAGE™ Novex™ 4-12% Bis-Tris protein gel at 200 V for 40 min and stained with Spyro Ruby. The gels were visualized with a Typhoon FLA 9500 gel imager using a 473 nm laser and an LPG filter. FIG. 13 is a gel showing the results of the pull down (using nucleic acid 36) of HSA denatured with SDS (upper image) or Tween 80 (lower image) and reduced with DTT.
HSA binding with TCEP. […]

[6] = target: T1, Human serum albumin (HSA), denatured; experiment: EMSA; tested in lane 5, not listed among binders; PBS pH 6, 50 mM DTT, 1% SDS; details: tags: none; denatured with 1% surfactant and reduced with DTT or TCEP; label: 5'-fluorescein
Procedure: as §1

[7] = target: T1, Human serum albumin (HSA), denatured; experiment: EMSA; tested in lane 4, not listed among binders; PBS pH 6, 50 mM DTT, 1% SDS; details: tags: none; denatured with 1% surfactant and reduced with DTT or TCEP; label: 5'-fluorescein
Procedure: as §1

T1 sequence (P02768 25-609, one chain of several): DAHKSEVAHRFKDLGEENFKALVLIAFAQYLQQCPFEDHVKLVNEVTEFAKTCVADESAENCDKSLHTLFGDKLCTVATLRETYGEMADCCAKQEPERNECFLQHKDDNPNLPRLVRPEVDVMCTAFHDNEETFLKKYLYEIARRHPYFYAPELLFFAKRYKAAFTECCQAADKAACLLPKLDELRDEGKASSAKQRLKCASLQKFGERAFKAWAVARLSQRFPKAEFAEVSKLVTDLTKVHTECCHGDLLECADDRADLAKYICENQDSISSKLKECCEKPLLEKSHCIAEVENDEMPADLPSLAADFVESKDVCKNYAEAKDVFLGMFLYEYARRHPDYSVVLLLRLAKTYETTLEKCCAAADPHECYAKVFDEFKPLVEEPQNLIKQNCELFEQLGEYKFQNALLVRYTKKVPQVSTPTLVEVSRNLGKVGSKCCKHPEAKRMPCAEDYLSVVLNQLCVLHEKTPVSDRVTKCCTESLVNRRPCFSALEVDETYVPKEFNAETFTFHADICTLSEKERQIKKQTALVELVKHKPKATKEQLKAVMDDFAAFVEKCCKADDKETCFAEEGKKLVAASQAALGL

B1: H5 (ssDNA)
DNA: GCGCATACCAGCTTATTCAATTAGGAACGCACCCGAGTGTTGCGCGAGCCAGTGGCTGGTTGGCCCGTATAAGATAGTAAGTGCAATCTCGGC
- binding result [1]: no binding

B2: 35 (ssDNA)
DNA: GCGCATACCAGCTTATTCAATTCGGTACGTGACGCAAAAAAGGTCGGGCGGCTGACATGGCACCTCGTCTAAAGATAGTAAGTGCAATCTCGGC
- binding result [2]: no binding

B3: 19 (ssDNA)
DNA: GCGCATACCAGCTTATTCAATTAACGTGTAGAGGTGTTCACGCACCACGCCGACTGTGGTTGACCCACAGTTAGATAGTAAGTGCAATCTCGGC
- binding signal [3]: 10.3 % HSA bound

B4: H3 (ssDNA)
DNA: GCGCATACCAGCTTATTCAATTGATCCATACAAGGGTAGGTTGACTTCCGCCCAAGGGGGCGAGGCCGTGAGATAGTAAGTGCAATCTCGGC
- binding result [4]: no binding

B5: 36 (ssDNA)
DNA: GCGCATACCAGCTTATTCAATTCGGATAGACAACATGGGGAAGAACAGTGTCTAGTCGTGGGTTGCTCTGTAAGATAGTAAGTGCAATCTCGGC
- binding result [5]: binds

B6: H2 (ssDNA)
DNA: GCGCATACCAGCTTATTCAATTTCAAAGGCTGACCGGATGGGCTTCGTGACCGGGTACGCCACTGCCTCGTGAGATAGTAAGTGCAATCTCGGC
- binding result [6]: no binding

B7: 40 (ssDNA)
DNA: GCGCATACCAGCTTATTCAATTCGGTAGTGCAGCGGCTTGAAATCAGCCGTGCTTTCGGGACGGAACTACTCAGATAGTAAGTGCAATCTCGGC
- binding signal [3]: 10.3 % HSA bound

B8: H6 (ssDNA)
DNA: GCGCATACCAGCTTATTCAATTGCGTACCTAGGATTTACTTTCTCAAGATATTTGGAGTGACAAGTGGCATAAGATAGTAAGTGCAATCTCGGC
- binding signal [3]: 10 % HSA bound

B9: H1 (ssDNA)
DNA: GCGCATACCAGCTTATTCAATTACGCTCAGGACTAAAAATGGGCGTGACCATGAGCTCAGTATGGGCGTTACAGATAGTAAGTGCAATCTCGGC
- binding result [7]: no binding

B10: P1 (ssDNA)
DNA: GCGCATACCAGCTTATTCAATTGCATAGTCATGCGGGAATAGTTTTCGATGAGGGCTATTGGAGGCCCCAGCAGATAGTAAGTGCAATCTCGGC
- binding signal [3]: 12.7 % HSA bound
